# B1: Aurora kinase A (Homo sapiens), O14965 (parent)
# chain: MDRSKENCISGPVKATAPVGGPKRVLVTQQFPCQNPLPVNSGQAQRVLCPSNSSQRIPLQAQKLVSSHKPVQNQKQKQLQATSVPHPVSRPLNNTQKSKQPLPSAPENNPEEELASKQKNEESKKRQWALEDFEIGRPLGKGKFGNVYLAREKQSKFILALKVLFKAQLEKAGVEHQLRREVEIQSHLRHPNILRLYGYFHDATRVYLILEYAPLGTVYRELQKLSKFDEQRTATYITELANALSYCHSKRVIHRDIKPENLLLGSAGELKIADFGWSVHAPSSRRTTLCGTLDYLPPEMIEGRMHDEKVDLWSLGVLCYEFLVGKPPFEANTYQETYKRISRVEFTFPDFVTEGARDLISRLLKHNPSQRPMLREVLEHPWITANSSKPSNCQNKESASKQS
# Variants of: B1
# Settings: with tpx2_human TPX2, Q9ULW0
# Chain of tpx2_human TPX2, Q9ULW0 (Q9ULW0 whole entry): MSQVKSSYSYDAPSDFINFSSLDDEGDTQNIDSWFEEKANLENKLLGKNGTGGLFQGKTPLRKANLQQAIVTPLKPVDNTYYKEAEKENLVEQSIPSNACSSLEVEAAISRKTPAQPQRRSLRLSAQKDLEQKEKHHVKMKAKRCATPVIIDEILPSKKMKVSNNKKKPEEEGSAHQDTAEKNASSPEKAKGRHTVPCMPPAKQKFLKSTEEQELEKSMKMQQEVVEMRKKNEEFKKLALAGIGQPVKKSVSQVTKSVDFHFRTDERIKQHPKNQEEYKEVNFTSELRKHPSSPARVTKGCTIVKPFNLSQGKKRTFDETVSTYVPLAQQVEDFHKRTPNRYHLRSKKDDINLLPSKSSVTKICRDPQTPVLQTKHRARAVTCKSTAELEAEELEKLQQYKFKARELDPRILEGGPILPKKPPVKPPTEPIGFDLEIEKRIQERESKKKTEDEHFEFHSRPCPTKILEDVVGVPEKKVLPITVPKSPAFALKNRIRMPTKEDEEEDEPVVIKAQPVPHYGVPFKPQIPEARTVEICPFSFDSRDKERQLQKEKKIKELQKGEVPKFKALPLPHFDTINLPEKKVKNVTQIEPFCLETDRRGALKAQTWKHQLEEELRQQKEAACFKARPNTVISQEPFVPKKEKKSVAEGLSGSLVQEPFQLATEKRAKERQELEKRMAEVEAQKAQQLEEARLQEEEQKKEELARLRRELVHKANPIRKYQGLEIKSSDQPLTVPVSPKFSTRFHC
row,effect of a mutation on the interaction,Variant
1,decreasing interaction,G198N

# Variants of: B1
# Settings: with ince_human INCENP
row,effect of a mutation on the interaction,Variant
1,disrupting interaction strength,G198L
2,disrupting interaction strength,G198V
3,disrupting interaction strength,G198A
